Source: US20210032312A1 (Janssen / Centocor, published 2021)

B1: P283GR7P1367_G8 (designed binder)
chain: LPAPKNLVVSRVTEDSARLSWTAPDAAFDSFYIAYPEYVWGGEATSLGEAIVLTVPGSERSYDLTGLKPGTEYFVVITGVKGGLGSYPLSAIFTT
notes: FN3 domain
B2: P283HR7P1368_D1 (designed binder)
chain: LPAPKNLVVSRVTEDSARLSWTAPDAAFDSFGISYYEWAPNGEAIQLSVPGSERSYDLTGLKPGTEYHVVIIGVKGGEPSHPLGAPFTT
notes: FN3 domain
B3: P283HR7P1368_H1 (designed binder)
chain: LPAPKNLVVSRVTEDSARLSWTAPDAAFDSFGIAYIETARWGEAISLTVPGSERSYDLTGLKPGTEYNVVIIGVKGGTPSHPLGAPFTT
notes: FN3 domain
B4: P283ER9P1365_G3 (designed binder)
chain: LPAPKNLVVSRVTEDSARLSWTAPDAAFDSFGISYYEWAPNGEAIQLSVPGSERSYDLTGLKPGTEYHVVIIGVKGGEPSHPLGAIFTT
notes: FN3 domain
B5: P283HR7P1368_B12 (designed binder)
chain: LPAPKNLVVSRVTEDSARLSWTAPDAAFDSFGIGYVEFTRAGEAISLSVPGSERSYDLTGLKPGTEYHVVIIGVKGGEPSHPLGAPFTT
notes: FN3 domain
B6: P283HR7P1368_D4 (designed binder)
chain: LPAPKNLVVSRVTEDSARLSWTAPDAAFDSFAIWCVEPIPEGEAIPLFVPGSERSYDLTGLKPGTEYRVGIRGVKGGTFSSPLAAPFTT
notes: FN3 domain
B7: P283HR7P1368_A10 (designed binder)
chain: LPAPKNLVVSRVTEDSARLSWTAPDAAFDSFWIFYLEPFPRGEAIPLEVPGSERSYDLTGLKPGTEYSVDIRGVKGGDHSDPLWAYFTT
notes: FN3 domain
B8: P283GR7P1367_H8 (designed binder)
chain: LPAPKNLVVSRVTEDSARLSWTAPDAAFDSFSINYWEEDPAGEAIVLTVPGSERSYDLTGLKPGTEYRVLIGGVKGGHGSLPLSAIFTT
notes: FN3 domain
B9: P283HR7P1368_G11 (designed binder)
chain: LPAPKNLVVSRVTEDSARLSWTAPDAAFDSFGIGYAEPAVTGEAISLSVPGSERSYDLTGLKPGTEYWVVIIGVKGGINSYPLGASFTT
notes: FN3 domain
B10: P283HR7P1368_C3 (designed binder)
chain: LPAPKNLVVSRVTEDSARLSWTAPDAAFDSFGIGYAEPAVTGEAISLSVPGSKRSYDLTGLKPGTEYWVVIIGVKGGINSYPLGASFTT
notes: FN3 domain
B11: P283ER9P1365_B6 (designed binder)
chain: LPAPKNLVVSRVTEDSARLSWTAPDAAFDSFGIGYAEPVVTGEAISLSVPGSERSYDLTGLKPGTEYWVVIIGVKGGINSYPLGAIFTT
notes: FN3 domain
B12: P283HR7P1368_D2 (designed binder)
chain: LPAPKNLVVSRVTEDSARLSWTAPDAAFNSFGIGYAEPAVTGEAISLSVPGSERSYDLTGLKPGTEYWVVIIGVKGGINSYPLGASFTT
notes: FN3 domain
B13: P283ER9P1365_E2 (designed binder)
chain: LPAPKNLVVSRVTEDSARLSWTAPDAAFDSFYIPYRESEFRGEAIALPVPGSERSYDLTGLKPGTKYRVIIIGVKGGEFSQPLAAIFTT
notes: FN3 domain
B14: P283ER9P1365_G1 (designed binder)
chain: LPAPKNLVVSRVTEDSARLSWTAPDAAFDSFYIPYRESEFRGEAIALSVPGSERSYDLTGLKPGTKYRVIIIGVKGGEFSQPLGAIFTT
notes: FN3 domain
B15: P283ER9P1365_H3 (designed binder)
chain: LPAPKNLVVSRVTEDSARLSWTAPDAAFDSFYIPYRESEFRGEAIALPVPGSERSYDLTGLKPGTKYRVIIIGVKGGEFSQPLSAIFTT
notes: FN3 domain
B16: P283ER9P1365_F4 (designed binder)
chain: LPAPKNLVVSRVTEDSARLSWTAPDAAFDSFYIPYRESEFRGEAIALPVPGSERSYDLTGLKPGTKYSVIIIGVKGGEFSQPLGAIFTT
notes: FN3 domain
B17: P283HR7P1368_F10 (designed binder)
chain: LPAPKNLVVSRVTEDSARLSWTAPDAAFDSFYIPYRESEFRGEAIALPVPGSERSYDLTGLKPGTKYRVIIIGVKGGEFSQPLGAIFTT
notes: FN3 domain
B18: P283ER9P1365_A7 (designed binder)
chain: LPAPKNLVVSRVTEDSARLSWTAPDAAFDSFYIPYWESEVYGEAIALPVPGSERSYDLTGLKPGTEYQVSIIGVKGGVYSQPLAAIFTT
notes: FN3 domain
B19: P283ER9P1365_C1 (designed binder)
chain: LPAPKNLVVSRVTEDSARLSWTAPDAAFDSFYIPYWESEVYGEAIALPVTGSERSYDLTGLKPGTEYQVSIIGVKGGVYSQPLAAIFTT
notes: FN3 domain
B20: P283GR7P1367_B9 (designed binder)
chain: LPAPKNLVVSRVTEDSARLSWTAPDAAFDSFEIWYHEYHPRGEAIVLTVPSSERSYDLTGLKPGTEYDVVISGVKGGHWSYPLSAIFTT
notes: FN3 domain
B21: P283GR7P1367_E5 (designed binder)
chain: LPAPKNLVVSRVTEDSARLSWTAPDAAFDSFEIWYHEYHPRGEAIVLTVPGSERSYDLTGLKPGTEYDVVISGVKGGHWSYPLSAIFTT
notes: FN3 domain

Columns and labels:
[1] = biological target: T1, human CD8A-Fc (in house) (human, UniProt P01732 22-182, limits assumed); test: SPR (ProteOn), captured hCD8A-Fc
T1 construct: captured by goat anti-human Fc on the ProteOn chip; also called hCD8A-Fc; recombinant human CD8 alpha; not shown: linker/tag and Fc of human IgG1

[2] = biological target: T2, human CD8 alpha (CD8A) on primary human CD8+ T cells (human, UniProt P01732 22-235); test: flow cytometry, human CD8+ T cells
T2 construct: whole, on cells; also called hCD8A

[3] = biological target: T3, cynomolgus monkey CD8 alpha on primary cynomolgus CD8+ T cells (cynomolgus monkey, UniProt P01732 23-235 (human entry)); test: flow cytometry, cyno CD8+ T cells
T3 construct: also called Cyno CD8alpha; cyno CD8A
T3 sequence (P01732 other isoform, or with tags, fused parts or gaps limits assumed): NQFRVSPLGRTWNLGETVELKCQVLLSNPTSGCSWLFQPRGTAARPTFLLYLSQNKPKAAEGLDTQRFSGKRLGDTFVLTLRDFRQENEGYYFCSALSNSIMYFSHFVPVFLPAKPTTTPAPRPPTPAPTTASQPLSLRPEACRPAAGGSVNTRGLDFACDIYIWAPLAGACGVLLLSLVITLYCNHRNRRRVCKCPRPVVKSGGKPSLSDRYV

T2 sequence (P01732 22-235): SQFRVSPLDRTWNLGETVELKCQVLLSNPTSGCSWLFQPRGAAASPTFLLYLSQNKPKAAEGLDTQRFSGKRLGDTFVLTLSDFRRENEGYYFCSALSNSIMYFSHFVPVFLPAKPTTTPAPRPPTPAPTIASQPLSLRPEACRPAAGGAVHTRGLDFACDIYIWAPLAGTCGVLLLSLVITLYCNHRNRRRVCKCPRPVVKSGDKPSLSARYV
T1 sequence (P01732 22-182 limits assumed): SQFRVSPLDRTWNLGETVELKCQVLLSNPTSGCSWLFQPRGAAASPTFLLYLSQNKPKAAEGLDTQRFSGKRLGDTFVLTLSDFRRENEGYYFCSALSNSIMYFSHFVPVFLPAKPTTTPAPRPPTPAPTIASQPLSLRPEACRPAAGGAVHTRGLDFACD

Row | Binder | koff [1] | Human T-cell Binding 0.2 uM (MFI) [2] | Human T-cell Binding 2 uM (MFI) [2] | Cyno T-cell Binding 0.2 uM (MFI) [3] | Cyno T-cell Binding 2 uM (MFI) [3]
1 | B1 | 0.00385 s⁻¹ | 450 MFI | 1460 MFI | 1420 MFI | 21000 MFI
2 | B2 | 0.00166 s⁻¹ | 2310 MFI | 14100 MFI | 1410 MFI | 7850 MFI
3 | B3 | 0.000552 s⁻¹ | 2460 MFI | 15400 MFI | 1970 MFI | 17300 MFI
4 | B4 | 0.0025 s⁻¹ | 2920 MFI | 12500 MFI | 1470 MFI | 3480 MFI
5 | B5 | 4.53e-05 s⁻¹ | 1540 MFI | 13400 MFI | 826 MFI | 18600 MFI
6 | B6 | 0.000235 s⁻¹ | 6850 MFI | 29000 MFI | 23500 MFI | 53000 MFI
7 | B7 | 0.000513 s⁻¹ | 3230 MFI | 13600 MFI | 4770 MFI | 42300 MFI
8 | B8 | 0.00974 s⁻¹ | 303 MFI | 5270 MFI | 930 MFI | 20900 MFI
9 | B9 | 0.000373 s⁻¹ | 2650 MFI | 19300 MFI | 1340 MFI | 14900 MFI
10 | B10 | 0.000349 s⁻¹ | 2220 MFI | 12700 MFI | 1310 MFI | 13300 MFI
11 | B11 | 0.000288 s⁻¹ | 3400 MFI | 23000 MFI | 2690 MFI | 30100 MFI
12 | B12 | 0.0013 s⁻¹ | 1910 MFI | 15200 MFI | 950 MFI | 11100 MFI
13 | B13 | 0.000311 s⁻¹ | 2870 MFI | 20000 MFI | 1900 MFI | 17200 MFI
14 | B14 | 0.00367 s⁻¹ | 318 MFI | 1280 MFI | 383 MFI | 489 MFI
15 | B15 | 0.000375 s⁻¹ | 953 MFI | 18000 MFI | 436 MFI | 19600 MFI
16 | B16 | 0.000216 s⁻¹ | 2600 MFI | 24100 MFI | 2040 MFI | 43200 MFI
17 | B17 | 0.000165 s⁻¹ | 2660 MFI | 18800 MFI | 1020 MFI | 16100 MFI
18 | B18 | 0.000786 s⁻¹ | 1320 MFI | 18500 MFI | 2960 MFI | 36600 MFI
19 | B19 | 0.00115 s⁻¹ | 644 MFI | 8000 MFI | 1880 MFI | 24000 MFI
20 | B20 | 0.00116 s⁻¹ | 1090 MFI | 11200 MFI | 442 MFI | 2920 MFI
21 | B21 | 0.00124 s⁻¹ | 1330 MFI | 10000 MFI | 533 MFI | 3190 MFI
